Laboratory results as given in US20110229472A1 (Amgen, published 2011).
Ends that are not written are not given here.

B1: TMP3 (22-residue capped peptide) (peptide)
peptide: QGRDLDGPTLRQWLPLPSVQHS
notes: two-residue caps at each end; also called TMP03
B2: TMP21 (22-residue capped peptide) (peptide)
peptide: QGWCKEGPTLREWLRWGFLCHS
modifications: not fully specified; cysteine pairing not given here
notes: two-residue caps at each end; Two Cys
B3: TMP23 (22-residue capped peptide) (peptide)
peptide: QGCSWGGPTLKQWLQCVRAKHS
modifications: not fully specified; cysteine pairing not given here
notes: as for B2
B4: TMP4 (22-residue capped peptide) (peptide)
peptide: QGALRDGPTLKQWLEYRRQAHS
notes: two-residue caps at each end; also called TMP04
B5: TMP2 (22-residue capped peptide) (peptide)
peptide: QGGAREGPTLRQWLEWVRVGHS
notes: two-residue caps at each end; also called TMP02
B6: TMP22 (22-residue capped peptide) (peptide)
peptide: QGCSSGGPTLREWLQCRRMQHS
modifications: not fully specified; cysteine pairing not given here
notes: as for B2

Molecular target: T1, Recombinant human MPL (human, UniProt P40238 26-491, limits assumed)
T1 construct: also called hu-mpl; hu-MPL
T1 sequence (looked up): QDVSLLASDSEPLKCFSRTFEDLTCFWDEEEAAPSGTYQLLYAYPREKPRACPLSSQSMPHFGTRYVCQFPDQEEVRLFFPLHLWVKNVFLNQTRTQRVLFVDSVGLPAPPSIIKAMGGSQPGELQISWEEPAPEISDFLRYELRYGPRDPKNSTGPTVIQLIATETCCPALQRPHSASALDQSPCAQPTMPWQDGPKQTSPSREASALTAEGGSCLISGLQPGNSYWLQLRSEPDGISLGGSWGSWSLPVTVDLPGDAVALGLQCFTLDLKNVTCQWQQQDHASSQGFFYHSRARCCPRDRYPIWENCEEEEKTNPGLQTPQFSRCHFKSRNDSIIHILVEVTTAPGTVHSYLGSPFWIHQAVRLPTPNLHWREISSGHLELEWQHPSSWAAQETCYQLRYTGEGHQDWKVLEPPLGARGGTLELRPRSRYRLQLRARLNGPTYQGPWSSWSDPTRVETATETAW
Assay: phage ELISA titration: phagemid particles displaying the peptide, 5-fold dilution series (cfu/ul), on plate-coated recombinant human MPL, HRP-anti-M13 detection, chemiluminescent readout (Example 1, sections 4B and 5)

| Binder | EC50 (read off the curve) [cfu/ul] |
| --- | --- |
| B1 | ~200000 |
| B2 | ~800000 |
| B3 | ~100000 |
| B4 | ~100000 |
| B5 | ~400000 |
| B6 | ~200000 |
